Results on 29 molecules are retold here after US20110294728A1, “Antiviral Polypeptides” (priority 2008, published 2011).

The target in experiment [1] is T1, HIV-1 reverse transcriptase, heterodimeric p66/p51 (HIV-1), P03366. Briefly: RT polymerase inhibition assay, Ki.
In experiment [2] the target is T1, HIV-1 reverse transcriptase, …. Briefly: RT polymerase inhibition assay, Ki from Dixon plot.
Experiment [3] addresses HIV-1 integrase (HIV-1). Briefly: dissociation of the IN/LEDGF complex, AlphaScreen and immunoprecipitation; partner displaced: LEDGF.
The target in experiment [4] is HIV-1 integrase (HIV-1). Briefly: cell-based or functional assay.
The target of experiment [5] is HIV-1 integrase (HIV-1). Briefly: steady state fluorescence and anisotropy.
Experiment [6] deals with HIV-1 integrase (HIV-1). Briefly: IN 3′ processing inhibition, fluorescence anisotropy. In general terms: In fluorescence polarisation assays a small probe gives low polarisation when free and higher when bound to something large.
Experiment [7] concerns the target T1, HIV-1 reverse transcriptase, …. Briefly: RT polymerase inhibition assay.
The target in experiment [8] is T2, RT:p/t (HIV-1 RT heterodimer pre-bound to DNA/DNA primer/template) (HIV-1), P03366. Briefly: steady-state fluorescence titration, 20 nM RT:FAM-p/t titrated with PAW.
Experiment [9] deals with HA-tagged Integrase (stably expressed in HeLa cells) (HIV-1). Briefly: cell-based or functional assay.
The target of experiment [10] is T2, RT:p/t (HIV-1 RT heterodimer pre-bound …). Briefly: steady-state fluorescence titration, 200 nM FITC-PAW titrated with RT:p/t.
Experiment [11] has the same target. Briefly: steady-state fluorescence titration.
Experiment [12] deals with T1, HIV-1 reverse transcriptase, …. Briefly: steady-state fluorescence titration, 200 nM FITC-PAW titrated with RT.
Experiment [13] has as its target HIV-1 integrase (HIV-1). Briefly: steady-state fluorescence anisotropy, fluorescein-labelled peptide titrated with IN.

Where no end group is shown, it is not given here.

Broadly, the Ki is a dissociation constant, usually derived from enzyme kinetics or from competition with a known ligand. As to GTKAWTEVWPL (modifications not checked) [P17], in experiment [1], the fold reduction in efficiency against PAW is 50 fold. In experiment [2], this molecule returned a Ki of 35 µM.

In experiment [2], GTKAATEVIPLT (modifications not checked) [P19] gave a Ki of 49 µM.

In experiment [1], GTAALTEVIPLTEEAE (modifications not checked) [P4] showed a fold reduction in potency against P1 of 2 fold. In addition, the Ki in [2] is 15 µM.

As a reminder, the EC50 is the concentration needed to bring the measured effect to its halfway point. Broadly, the Kd is the equilibrium constant for the complex coming apart. High values mean lower affinity, low ones higher affinity. GTKWLTEWIPL (modifications not checked) [P24]: in experiment [3], the EC50 is 13 µM. In [2], this molecule came in with a Ki of 0.7 µM. In experiment [4], this molecule gave an EC50 (µM) 3′processing of 33 µM, an EC50 (µM) IN/DNA binding of 35 µM and an EC50 (µM) IN/DNA dissociation of 21 µM. Further, the dissociation constant Kd in experiment [5] stood at 0.35 µM.

In experiment [2], KWLTEWIPLTAE (modifications not checked) [P29] gave a Ki of 1 µM. This counts as single-digit micromolar.

Take GTKALTEVIPLTEEAE (modifications not checked) [P1]: in experiment [1], the fold increase in potency against Pep-A was determined as 5 fold. For the same molecule, the Ki in [2] turned out to be 7.5 µM.

The molecule GTKALTEVAPLTEEAE (modifications not checked) [P10] had a Ki in experiment [2] of 7.3 µM.

Regarding CGTKWLTEVWPLC (modifications not checked) [P16C1], the Ki in experiment [6] came to 4.3 µM; in [7] it was 32.1 µM. The same molecule displayed a Kd in experiment [5] of 0.09 µM.

With CGTKWLTEWIPLTAEAEC (modifications not checked) [PAW-C1], the figures for the Ki in experiment [6] and in experiment [7] were 21 µM and 0.2 µM, respectively. The molecule also had a Kd in [5] of 0.29 µM.

In experiment [2], GTKAATEVIPLTEEAE (modifications not checked) [P6] displayed a Ki of 5.7 µM.

In turn, GTKWLTEWIPLTAE (modifications not checked) [P27] had a Ki in experiment [6] of over 100 µM. The molecule also showed a fold increase in efficiency against PAW in [1] of 14 fold. Also, in experiment [7], the Ki came out at 0.05 µM. Moreover, the Ki in experiment [2] amounted to 0.05 µM. In [4], this molecule displayed an EC50 (µM) 3′processing of over 100 µM, an EC50 (µM) IN/DNA binding of over 100 µM and an EC50 (µM) IN/DNA dissociation of over 100 µM. Moreover, the Kd in experiment [5] is over 100 µM.

The molecule GTKALTAVIPLTEEAE (modifications not checked) [P8] showed a fold reduction in efficiency against P1 in experiment [1] of 8 fold. Further, the inhibitory constant (Ki) in experiment [2] came out at 57 µM.

For GTKWATEWAPLTAEAE (modifications not checked) [P28], the Ki in [2] is 2 µM.

In experiment [1], GTKALAEVIPLTEEAE (modifications not checked) [P7] registered a fold reduction in potency against P1 of 2 fold. Moreover, the Ki in experiment [2] is 13.5 µM.

In experiment [2], ATKALTEVIPLTEEAE (modifications not checked) [P2] yielded a Ki of 28 µM.

In turn, GTKWLTEWIPLTAEAE (modifications not checked) [PAW] had an EC50 in [3] of 2 µM. Besides, in experiment [6], the Ki came out at 12 µM. In experiment [1], this molecule registered a fold improvement in efficiency over P6 of 10 fold and a fold improvement in efficiency over Pep-A of 50 fold. Besides, the Ki in experiment [7] was 0.7 µM. In experiment [2], the Ki came to 0.7 µM. In [8], the Kd came out at 0.04 µM and the quenching of fluorescence of FAM-labelled p/t worked out at 39%. Besides, in experiment [4], the EC50 (µM) 3′processing is 12 µM, the EC50 (µM) IN/DNA binding was 10 µM, the EC50 (µM) IN/DNA dissociation is 15 µM and the IC50 3′-proc amounted to 12.7 µM. In experiment [9], the IN half-life (cycloheximide treatment, 1 µM PAW) was 17 min and the integrase located in the nucleus (High Content Screening, HeLa cells) came out at 35%. The same molecule registered a Kd in experiment [5] of 0.23 µM.

For GTKWLTEWIPLTAEAEC (not fully specified) [PAW-FITC], in [10], the Kd stood at 0.0071 µM and the quenching of FITC-PAW fluorescence amounted to 57%. In experiment [11], this molecule displayed a fold increase in affinity against RT without p/t of 5 fold and a fold lower Kd than unlabelled PAW of 5.6 fold. In [12], this molecule registered a Kd of 0.033 µM and a quenching of FITC-PAW fluorescence of 39%. Also, the fold greater Ki than PAW in [1] came out at 3.8 fold. This molecule also returned a Ki in experiment [2] of 2.7 µM. In experiment [4], the IC50 3′-proc (gel electrophoresis) turned out to be 10 µM. For the same molecule, in experiment [13], the Kd came out at 0.4 µM and the Δr (change of steady-state anisotropy) turned out to be 0.06.

As to GTKALTEAIPLTEEAE (modifications not checked) [P9], in experiment [1], the fold reduction in potency against P1 came out at 2 fold. The molecule also returned a Ki in experiment [2] of 15 µM.

On to GTKGLTEVIPLTEEAE (modifications not checked) [P5], for which the fold reduction in potency against P1 in experiment [1] came out at 2.7 fold. Further, the Ki in experiment [2] was determined as 20 µM.

As for GCKWLTEWIPLTAEAEC (modifications not checked) [PAW-C2], the figures for the Ki in experiment [6] and in experiment [7] were 8 µM and 1.4 µM, respectively. In experiment [5], this molecule displayed a Kd of 0.12 µM.

For GTKALTEVIALTEEAE (modifications not checked) [P11], in [2], the Ki stood at 7 µM.

Regarding KWLTEWIPLTAEAE (modifications not checked) [P26], in [3], the EC50 was over 50 µM. In experiment [1], this molecule registered a fold reduction in efficiency against PAW of 2.5 fold. The Ki in experiment [2] is 1.8 µM. In [4], this molecule gave an EC50 (µM) 3′processing of 28 µM, an EC50 (µM) IN/DNA binding of 54 µM and an EC50 (µM) IN/DNA dissociation of 67 µM. This molecule yielded a Kd in experiment [5] of 0.32 µM.

GTKALTEVIPLT (modifications not checked) [P18] registered a Ki in [2] of 53 µM.

In experiment [2], GAKTETLVIPETELEA (modifications not checked) [Pscramble] gave a Ki of 61 µM.

In experiment [2], GTKALTEVIPATEEAE (modifications not checked) [P12] had a Ki of 22 µM. This Ki is about 2.8-fold lower than that of the molecule before.

In the case of RGTKALTEVIPLTEEAE (modifications not checked) [Pep-A], in experiment [2], the Ki worked out at 35 µM.

As to GTKALTEVIPLAEEAE (modifications not checked) [P13], the Ki in experiment [2] came to 10.2 µM.

On to CGTKWLTEWIPLTAEC (modifications not checked) [P27C1], for which the Ki in [6] was over 100 µM; in [7] it was 0.042 µM.

GTKWLTEVWPL (modifications not checked) [P16]: the EC50 in [3] amounted to 0.8 µM. This molecule also registered a Ki in experiment [6] of 10 µM. Also, the fold reduction in efficiency against PAW in experiment [1] amounted to 20 fold. In [7], this molecule displayed a Ki of 14.4 µM. For the same molecule, the Ki in [2] is 14 µM. In experiment [4], this molecule displayed an EC50 (µM) 3′processing of 10 µM, an EC50 (µM) IN/DNA binding of 8 µM and an EC50 (µM) IN/DNA dissociation of 11 µM. In [5], the Kd turned out to be 0.12 µM.
